The source of these data is patent CN114106188A (SHENZHEN PEOPLE HOSPITAL, dated 2022).

This experiment deals with T1, ERp57蛋白 (蛋白二硫化物异构酶A3, purified recombinant full-length protein).
T1 chain: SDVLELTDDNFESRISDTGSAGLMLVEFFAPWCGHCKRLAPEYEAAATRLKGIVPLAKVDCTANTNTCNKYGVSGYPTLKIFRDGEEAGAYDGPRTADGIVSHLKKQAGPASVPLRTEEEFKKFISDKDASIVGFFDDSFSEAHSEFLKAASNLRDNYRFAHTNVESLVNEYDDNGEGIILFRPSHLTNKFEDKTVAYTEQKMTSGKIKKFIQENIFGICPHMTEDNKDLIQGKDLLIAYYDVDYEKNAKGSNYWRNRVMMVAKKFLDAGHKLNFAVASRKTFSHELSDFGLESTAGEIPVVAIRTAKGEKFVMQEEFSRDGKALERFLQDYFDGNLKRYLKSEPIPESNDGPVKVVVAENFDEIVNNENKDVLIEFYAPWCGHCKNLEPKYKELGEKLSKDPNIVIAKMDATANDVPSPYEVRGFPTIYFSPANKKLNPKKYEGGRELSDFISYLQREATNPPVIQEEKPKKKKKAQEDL
Kind of experiment: SPR (Biacore), antigen protein immobilised on chip, nanobody as analyte.

B1: NbA11纳米抗体 (VHH)
VHH: AVQLVESGGGLVQAGGSLRLSCAASGRAFSRYAVGWFRQTPGKEREFVAAISYHGGYTAYADSVKGRFTISRDSTSNTVHLQMNSLKPEDTAVYYCNTDARALYDYWGQGTQVTVSS
notes: Alpaca-derived nanobody from a naive phage display library; Expressed in E. coli from PET-14B with an HA tag and purified on a Ni column
In general, Kd refers to the constant that tells how readily two partners part at equilibrium. For B1, the Kd was 419 nM.
